Five molecules from patent US11021533 (dated 2021) can be followed below.

The labels stand for the following.
B1: ZIKV-190 (antibody, V domains shown)
VH: EVQLVESGGGLIQPGGSLRLSCAASGFTFSSYAMSWVRQAPGKGLEWVSAISGSGGSTYYADSVKGRFTISRDNSKNTLSLQMNSLRAEDTAVYYCARAFYYDFWTFDYWGQGTLVTVSS
VL: QSALTQPRSVSGSPGQSVTISCTGTSSDVGGYNYVSWYQQHPGKAPKLMIYAVTKRPSGVPDRFSGSKSGNTASLTISGLQAEDEADYYCCSYAGSYTYVVFGGGTKLTVL
B2: ZIKV-195 (antibody, V domains shown)
VH: QVQVVESGGGVVQPGRSLRLSCAASGFTFSSSAMHWVRQAPGKGLEWVAVISYDGSNKYYGDSVKGRFTISRDNSKNTLYLQMHSLRAEDTAVYYCAKDRDAYNTVGYFAYYYGMDVWGQGTLVTVSS
VL: QSVLTQPPSVSEAPRQRVTISCSGSSSNIGNNAVNWYQQLPGKAPKLLIYYDDLLPSGVSDRFSGSKSGTSASLAISGLQSEDEADYYCAAWDDSLTRYVFGTGTKVTVL
B3: ZIKV-88 (antibody, V domains shown)
VH: QVQLLESGGGVVQPGRSLRLSCVASGLTFSTSAMHWVRQAPGKGLEWVAVISYDGSYKFYADSVRDQFTISRDNSKTTLYLQMDGLTPEDTAVYYCARGYNDDSSGSYWYFDLWGRGTLVTVSS
VL: QSVLTQPPSVSAAPGQKVTMSCSGSSSNIGSNFVSWYQQLPGTAPKVLIFDNNQRPSGIPDRFSGSKSGTSATLAITGLQPGDEAVYHCGTWDSSLTFAVFGGGTKLTVL
B4: ZIKV-204 (antibody, V domains shown)
VH: QVTLRESGPALLKPTQTLTLTCTFSGFSLSTNETCVSWIRQPPGKALEWLALIDWDDDQYSSTSLAARLTVSKDTSKNQVVLTMTNVAPVDTATYYCALTRPTLTAQNGDKYYNYYYGMDVWGQGTLVTVSS
VL: EIVLTQSPGTLSLSPGERATLSCRASQSVSSMYLAWYQQKRGQPPRLLIYGTFNRATGIPDRFSGSGSGTDFTLTISRLEPEDFAVYYCQQYGSSSFTFGGGTKVEIK
B5: ZIKV-19 (antibody, V domains shown)
VH: QVQLVQSGPEVKKPGSSVKVSCKASGVSFNTYEISWVRQAPGQGLEWMGRIIPIFATPTYALKFQGRVTITTDESTTTGYMELSSLRSEDTAVYYCAGRPYGPGSWLPLDVWGQGTLVTVSS
VL: DIVMTQSPSSLSASVGDRVTITCRASQGISSYLAWYQQKPGKLPKLLIYAASTLQSGVPSRFSGSGSGTDFTLTISSLQPEDVAAYYCQKYDSAPFTFGPGTKVDLK

What is called EC50 is the concentration needed to bring the measured effect to its halfway point. Read a high EC50 as lower potency in that assay.

Sequence of ZIKV E protein ectodomain (A0A024B7W1 291-745): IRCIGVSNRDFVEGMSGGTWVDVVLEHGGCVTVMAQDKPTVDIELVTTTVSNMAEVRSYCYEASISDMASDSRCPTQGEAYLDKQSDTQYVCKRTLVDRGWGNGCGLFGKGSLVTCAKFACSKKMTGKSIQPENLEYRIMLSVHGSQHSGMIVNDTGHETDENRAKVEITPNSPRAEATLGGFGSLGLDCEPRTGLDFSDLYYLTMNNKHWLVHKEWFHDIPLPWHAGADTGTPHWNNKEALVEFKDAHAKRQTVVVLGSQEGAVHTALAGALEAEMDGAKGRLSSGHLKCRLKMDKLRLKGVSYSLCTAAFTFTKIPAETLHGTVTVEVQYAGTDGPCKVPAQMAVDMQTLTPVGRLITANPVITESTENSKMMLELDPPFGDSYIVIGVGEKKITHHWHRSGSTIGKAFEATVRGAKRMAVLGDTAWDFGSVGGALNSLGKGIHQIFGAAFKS

This test has as its target ZIKV E protein ectodomain (UniProt A0A024B7W1 291-745). The test can be described thus: ELISA. A general note: In an ELISA, binding on a coated surface is turned into a signal by an enzyme label.
B1 returned an EC50 of 0.082 µg/mL. Regarding B2, the EC50 was 0.695 µg/mL. Consider B3, for which the EC50 worked out at 0.07 µg/mL. This EC50 lies about 9.9-fold lower than the previous one.

On to B4, for which the concentration for a half-maximal effect (EC50) was 0.048 µg/mL. The molecule B5 had an EC50 of 0.165 µg/mL.
